Consider six molecules from patent publication US20180244802A1 (DEUTSCHES ZENTRUM FUR NEURODEGENERATIVE ERKRANKUNGEN E V …, published 2018).

B1: 007-124 (antibody, human IgG1, V domains shown)
VH: EVQLVESGGGVGRPGGSLRLSCAASGFTFDDYGMSWVRQVPGKGLEWVSGINWSGADTGYADSVKGRFTISRDNAKNSLYLQMNSLRVEDTALYHCAREVGIAVTGYWFDPWGQGTLVTV
VL: SYELTQPPSVSVAPGQTARISCGGNHSESVHWYQQKPGQAPVLVVYDDSDRPSGIPERFSGSKSGNTATLTISRVEGGDEAEYYCQVWDSSSDHPGVVFGGGTKLTVL
notes: also called 007-124-HC; 007-124-LC
B2: 003-109 (antibody, V domains shown)
VH: VQLVESGGGVVQPGRSLRLSCAASGFTFSSYGMHWVRQAPGKGLEWVAVIWYDGSNKYYADSVKGRFTISRDNSKNTLYLQMNSLRAEDTAVYYCARRHYDFDAFDIWGQGTMVTVSS
VL: QSALTQPASVSGSPGQSITISCTGTSSDVGGYNYVSWYQQHPGKAPKLMIYEVSNRPSGVSNRFSGSKSGNTASLTISGLQAEDEADYYCSSYTSSSTLYVFGTGTKVTVL
notes: also called 003-109-HC; 003-109-LC
B3: 008-218 (antibody, human IgG1, V domains shown)
VH: EVQLVESGGGLVQPGRSLRLSCAASGFTFDDYAMHWVRQVPGKGLEWVSGISWSSGSIGYADSVKGRFTISRDNAKNSLYLQMNSLRAEDTALYYCAKDRASSWYAYGMDVWGQGTLVTV
VL: NFMLTQPHSVSESPGKTVTISCTRSSGSIASNYVQWYQQRPGSSPTTVIYDDNQRPSGVPNRFSGSIDSSSNSASLIISGLKTEDEADYYCQSTRVFGGGTKLTVL
notes: also called 008-218-HC; 008-218-LC
B4: 007-168 (antibody, human IgG1, V domains shown)
VH: VQLVQSGAEAKKPGESLKISCKASGYSFTTFWIGWVRQMPGSGLEWIGIIYPGDSDTRYSPSFQGHVTISADRSTSTAYLQWSSLKASDTAMYYCARSAVFDYWGQGTLVTVSS
VL: EIVMTQSPATLSVSPGGRATLSCRASQSVSSNLAWYQQKPGQAPRLLIYGASTRATGIPVRFSGSGSGTEFTLTISSLQSEDFAVYYCQQYNNWPTSWTFGQGTKVEIK
B5: 007-169 (antibody, V domains shown)
VH: EVQLVQSGAEVKKPGESLKISCKGSGYSFTSYWIGWVRQMPGKGLEWMGIIYPGDSDTRYSPSFQGQVTISADKSISTAYLQWSSLKASDTAMYYCARDYGDYYFDYWGQGTLVTVSS
VL: QSALTQPRSVSGSPGQSVTISCTGTSSDVGGYNYVSWYQQHPGKAPKLMIYDVSKRPSGVPDRFSGSKSGNTASLTISGLQAEDEADYYCCSYAGSYTGVFGEGTKLTVL
notes: also called 007-169-HC; 007-169-LC
B6: 007-142 (antibody, V domains shown)
VH: EVQLVQSGAEVKKPGESLKISCKGSGYSFTSYWIGWVRQMPGKGLEWMGIIYPGDSDTRYSPSFQGQVTISADKSISTAYLQWSSLKASDTAMYYCARDYGDYYFDYWGQGTLVTVSS
VL: LTQPRSVSGSPGQSVTISCTGTSSDVGGYNYVSWYQQHPGKAPKLMIYDVSKRPSGVPDRFSGSKSGNTASLTISGLQAEDEADYYCCSYAGSYTGVFGGGTKLTVL
notes: also called 007-142-HC; 007-142-LC

This assay addresses T1, NR1 construct with mutation N368Q (human, UniProt Q05586 19-938).
T1 construct: whole, on cells; also called mutated NR1 construct; the mutant
Description: immunofluorescence staining of HEK293 cells transfected with NR1 N368Q. The protocol: The cDNA of the human ionotropic glutamate N-methyl-D-aspartate 1 receptor (GRIN1) was kindly provided by Prof. Dr. Wanker (MDC, Berlin) and cloned into pBudCE4.1 (Life Technologies). NR1 DNA (1 μg) was mixed with 3 μg PEI and 100 μl 150 mM NaCl, vortexed and incubated for 10 min, and HEK293 cells were transiently transfected. Two days later, HEK293 cells on cover slips were fixed with methanol at −20° C. for 4 min. In addition, HEK293 cells transfected with a different NMDAR clone, leucine-rich glioma-inactivated 1 (LGI1), contactinassociated protein 2 (Caspr2), α-amino-3-hydroxy-5-methyl-4-isoxazolepropionic acid (AMPA) receptor, and gamma-aminobutyric acid b (GABAb) receptor were used (Autoimmune-Enzephalitis-Mosaik 1, Euroimmun, Lübeck, Germany). For staining with monoclonal antibodies and control antibodies, cells were washed in PBS, preincubated with 5% normal goat serum containing 2% bovine serum albumin and 0.1% Triton X-100, and incubated with antibodies starting at a 1:2 dilution of the cell culture supernatant overnight at 4° C. Secondary fluorescently labeled anti-human IgG antibodies were used for visualization. Sections were washed in PBS and coverslips mounted with Immu-Mount (ThermoScientific).
Point mutation N368Q was introduced into the NR1 construct using the Stratagene QuikChange Mutagenesis kit according to manufacturer's instructions and the mutant transiently transfected into HEK293 cells as described previously (Doss et al, 2014). Staining of HEK293 cells expressing natural and mutated NR1 construct was performed as described above.
As to B1, the binding result was “no binding”.

In the case of B2, the binding result was “no binding”.

As for B3, the binding result was “no binding”.

As for B4, the binding result is reported as “no binding”.

As for B5, the binding result is on record as “no binding”.

B6: the binding result is “no binding”.
